Source: patent US20110294730A1, “METHOD OF TREATING GLAUCOMA AND INTRAOCULAR HYPERTENSION” (priority 2010, published 2011)

System: not listed separately
Assay: Curcumin eye drops, retinal damage due to glaucoma
Assay type: in vivo
Conditions: curcumin 1 to 5 percent in normal saline
From the text: We have used curcumin diluted in the normal saline from 1 to 5 percent after extracting it from turmeric using solvents such as DMSO and alcohol as well other known solvents. […] The sclera can be stained yellow that can be mistaken for jaundice. All the above antioxidants can be used with insulin as described above and there is no systemic reaction.

Row | Compound | improving the retinal damage
1 | COc1cc(/C=C/C(=O)CC(=O)/C=C/c2ccc(O)c(OC)c2)ccc1O [curcumin] | very effective

System: not given
Assay: not given
Conditions: patients treated with latanoprost; cited from earlier work

Row | Compound | increased iris pigmentation, share of patients [%]
2 | CC(C)OC(=O)CCC/C=C\C[C@@H]1[C@@H](CC[C@@H](O)CCc2ccccc2)[C@H](O)C[C@@H]1O [latanoprost] | ≤ 17

System: not given
Assay: not given
Conditions: […] eye drops; cited from earlier work

Row | Compound | miosis
3 | CNC(=O)Oc1ccc2c(c1)[C@]1(C)CCN(C)[C@@H]1N2C [physostigmine sulphate] | sustained miosis

System: trabecular meshwork
Assay: not given
Conditions: cited from earlier work

Row | Compound | extracellular acidification
4 | HGF: exogenous growth factor | significantly stimulated
5 | IGF-1: insulin like growth factor | significantly stimulated
6 | 11-Ib: exogenous growth factor | significantly stimulated
7 | TNF-a | significantly stimulated
8 | TGF-a: exogenous growth factor | significantly stimulated
9 | EGF: exogenous growth factor | significantly stimulated
10 | FGF-1: exogenous growth factor | significantly stimulated

System: not given
Assay: not given
Conditions: in vivo; cited from earlier work

Row | Compound | Effective duration of action [h] | Maximum duration [h] | Peak action | Onset of Action
11 | Regular (soluble): short-acting regular (soluble) insulin | 3 to 6 | 6 to 8 | 2 to 3 h | –
12 | Insulin detemir [Insulin detemir (Levemir)] | 14 | ~20 | 6 to 8 h | 3 to 4 h
13 | Insulin lispro [Insulin lispro (Humalog)] | 3 to 4 | 4 to 6 | ½-1¼ | ¼-½
14 | Insulin aspart [Insulin aspart (NovoLog)] | 3 to 4 | 4 to 6 | ½-1¼ | ¼-½
15 | NPH (isophane): intermediate-acting NPH (isophane) insulin | 10 to 16 | 14 to 18 | 6 to 10 h | 2 to 4 h
16 | Insulin glargine [Insulin glargine (Lantus)] | 18 to 20 | 20 to 24 | 8 to 16 h | 3 to 4 h
17 | Insulin glulisine [Insulin glulisine (Apidra)] | 3 to 4 | 4 to 6 | ½-1¼ | ¼-½
